In the nanobody polyreactivity screen of Harvey et al. (2022):

Assay: yeast display, Sf9 membrane polyspecificity reagent, FACS + sequencing; frameworks hold sequencing errors
How it was run: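 Using colony PCR, genes from sorted yeast display clones were amplified, then sequenced on MiSeq at 2 × 250 and filtered by CDR length. The clones had been stained with 10% biotinylated, detergent-solubilized Sf9 membrane reagent for 1 hour at 4 °C and sorted by FACS into low and high (top ~1%) gates on anti-HA and streptavidin fluorescence. Polyreactivity labels come from the gate of origin.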

With “QVQLVESGGGLVQAGGSLRLSCAASASTFSTYAMGSYRQAPGKERELVAAISWSGGSTNYADSVKGRLTISRDIAKYTVYLQMNSLKPEDTAVYYCGARWTSRYDYWGQGTQVTVSS” as the sequence, how does the “polyreactivity (PSR sort gate)” value read?
Its value is “high polyreactivity”.

With “QVQLVESGGGLVQAGGSLRLSCAASASTFWKYAMGWYRQAPGKEREFVAAITRSGGNTYYADSVQGRFTISRDNAKNTVFLQMNSLKPEDTAVYYCDKVTTVPYTNDYWGQGTQVTVSS” as the sequence, how does the “polyreactivity (PSR sort gate)” value read?
Its value is “high polyreactivity”.

With “QVQLVESGGGLVQAGGSLRLSCAASASTLYYNAMAWYIQAPGKERELVAAITSGGSTSYADSVKGRFTISRDNAKNTVYLQMNSLKPEDTAVYYCAAVFYRRFDYWGQGTQVTVSS” as the sequence, how does the “polyreactivity (PSR sort gate)” value read?
The value was “low polyreactivity”.

For “QVQLVESGGGLVQAGGSLRLSCAASASTTYYAMGWYRQAPGKERELVAAISFSGGSTFYADSVKGRFTISRDNAKNTVYLQMNCLKPEDTGVYYCATQEGPHKLDPRGYYWGQGTQVTVSS”, which “polyreactivity (PSR sort gate)” value is on record?
Its value is “low polyreactivity”.

For “QVQLVESGGGLVQAGGSLRLSCAASDTPSSSMLMGWYRQAPGKERELVAAISGSDGTTYYADSVKGRFTISRDNAKNTVYLQMNSLKPEDTAVYYCAADDRVDSGYIKDDYWGQGTQVTVSS”, which “polyreactivity (PSR sort gate)” value is on record?
The value was “low polyreactivity”.

For “QVQLVESGGGLVQAGGSLRLSCAASEFIFARNGMGWYRQAPGKERELVAAITNSGSTYADSVKGRFTISRDNAKNTVYLQMNSLKPEDTAVYYCNKDPGNVSSYTGGGYWGQGTQVTVSS”, which “polyreactivity (PSR sort gate)” value is on record?
Its value is “low polyreactivity”.

With “QVQLVESGGGLVQAGGSLRLSCAASGAIFGAITMGWYREAPGKERELVAAISKRGGSTYYADSVKGRFTSSRDNAKNTVYLQMNSLKPEDTAVYYCNATPRYLRQYVDPNWGYDYWGQGTQVTVSS” as the sequence, how does the “polyreactivity (PSR sort gate)” value read?
The value was “low polyreactivity”.

For “QVQLVESGGGLVQAGGSLRLSCAASGAMGCYRQAPGKERELVAGITSGGSTNYADSEKGRFTISRDNAKNTVYLQMNSLKPEDTAVYYCNAVGGPRWFSVGWPYDYWGQGTQVTVSS”, which “polyreactivity (PSR sort gate)” value is on record?
Its value is “low polyreactivity”.

For “QVQLVESGGGLVQAGGSLRLSCAASGATFGRNAMGWYRQAPGKERELVAAISWSASRTSYADSVKGRFTISRDNAKNTVYLQMNSLKPEDTAVYYCAARIWRSYYPYDYWGQGTQVTVSS”, which “polyreactivity (PSR sort gate)” value is on record?
The value was “high polyreactivity”.

Which “polyreactivity (PSR sort gate)” value does the source give for “QVQLVESGGGLVQAGGSLRLSCAASGATFGYYAMGWYRQAPGKEMEFVARITQRGSRTYYADSVKGRFTISRDNAKNTVYLQMNSLKPEDTAVYYCDAEVWWTHNGRGAYGYDYWGQGTHVTVSS” here?
Its value is “high polyreactivity”.

Which “polyreactivity (PSR sort gate)” value does the source give for “QVQLVESGGGLVQAGGSLRLSCAASGCTIWSSAMGWYRQAPGKERELVASITWSGGSTYADSVKGRFTISRDNAKNTVYLQMNSLKPEDTAVYYCARESTLTYYSDDFDYWGQGTQVTVSS” here?
Its value is “low polyreactivity”.

Which “polyreactivity (PSR sort gate)” value does the source give for “QVQLVESGGGLVQAGGSLRLSCAASGFAFSYYAMGWYRPAPGKEREFVASIDWSGGSTYYADSVKGRFTISRDNAKNTVYLQMTSLKPEDTAVYYCAAELDYFPGYDYWGQGTQVTVSS” here?
The value was “low polyreactivity”.

For “QVQLVESGGGLVQAGGSLRLSCAASGFICRGNAMGLYRQAPGKERELVASISRTGDTTYYADSVKGRFTISRDNAKNTVYLQMNSLTPEDTAVYYCARRSRVGYPLDSWGQATQVTVSS”, which “polyreactivity (PSR sort gate)” value is on record?
The value was “high polyreactivity”.

For “QVQLVESGGGLVQAGGSLRLSCAASGFIFADYMGWYRQAPGKERELDASISSTGSSTYADSVKGRFTISRDNAKNTVYLQMNSLKPEDTAVYYCAATGVWYSWYEYASEYDYWGQGTQVTVSS”, which “polyreactivity (PSR sort gate)” value is on record?
Its value is “high polyreactivity”.

With “QVQLVESGGGLVQAGGSLRLSCAASGFIFAEYAMGWYRQATGKERELDAGITSGGSTSYADSVKGRFTISRDNAKNTVYLQMTSLKPDATAVYYCAATWYYHYNDWKHWYEYGYWGLGTQVTVSS” as the sequence, how does the “polyreactivity (PSR sort gate)” value read?
Its value is “low polyreactivity”.

For “QVQLVESGGGLVQAGGSLRLSCAASGFIFAGYAMGWYRQAPGKERELVAAISRRGGRTNYADSVKGRFTISRDNAKNTVYLQMNSLKPEDTAVFYCAAVQASVYYGLGRFDYWGQGTQVTVSS”, which “polyreactivity (PSR sort gate)” value is on record?
Its value is “high polyreactivity”.

Which “polyreactivity (PSR sort gate)” value does the source give for “QVQLVESGGGLVQAGGSLRLSCAASGFIFAINAMGWYRQAPGKEREFVAAISSDGASTYYADSVKGRFTISRDNAKNTVYLQMNSLKPEDTAVYYCNAVPYEWTYPYEYYYWGQGTQVTVSS” here?
Its value is “low polyreactivity”.

For “QVQLVESGGGLVQAGGSLRLSCAASGFIFAIYAMGWYRQAPGKERELVAAISSSGGSTYYADSVKGRFTISRDNAKNTVYLQMNSLKPEDTAVYYCNADWSLYWLDYWGQGTQVTVSS”, which “polyreactivity (PSR sort gate)” value is on record?
The value was “high polyreactivity”.

With “QVQLVESGGGLVQAGGSLRLSCAASGFIFANAIGWYRQAPGKEMELVAAITWSGDSTYYADSVKGRFTISRDNAKNTVYLQMNSLKPEDTAVYYCAAVVTNAYRYDYWGQGTQVTVSS” as the sequence, how does the “polyreactivity (PSR sort gate)” value read?
The value was “low polyreactivity”.

With “QVQLVESGGGLVQAGGSLRLSCAASGFIFAPNVMGWYRQAPGKERELVAAINISGGSTSYADSVKGRFTISRDNAKNTVYLQMNSLKPEDTAVYYCAAEIPAYAYSYSYDYWGQGTQVTVSS” as the sequence, how does the “polyreactivity (PSR sort gate)” value read?
The value was “low polyreactivity”.

With “QVQLVESGGGLVQAGGSLRLSCAASGFIFARYAMGWYRQAPGKERELVAAISSSGGITYYADSVKGRFTISRDNAKNTVYFQMNSLKPEDTAVYYCAAPLGGGARWGRWWLYDSWGQGTQVTVSS” as the sequence, how does the “polyreactivity (PSR sort gate)” value read?
The value was “low polyreactivity”.

For “QVQLVESGGGLVQAGGSLRLSCAASGFIFARYAMGWYRQAPGKERELVAAISWSGARTYYADSVKGRFTISRDNAKNTVYLQMNSLKPEDTAVYYCNADYRKVTGDSYDYWGQGTQVTVSS”, which “polyreactivity (PSR sort gate)” value is on record?
Its value is “high polyreactivity”.

Which “polyreactivity (PSR sort gate)” value does the source give for “QVQLVESGGGLVQAGGSLRLSCAASGFIFASNAMGWYRQEPGKERELVASITIGDSTYYADSVKGRFTISRDNAKNTVYLQMNSLKPEDTAVYYCAAVKTVDVGYDYWGQGTQVTVSS” here?
The value was “low polyreactivity”.

Which “polyreactivity (PSR sort gate)” value does the source give for “QVQLVESGGGLVQAGGSLRLSCAASGFIFASYARGWYRQAPGKERELVAAISSSGGSTYADSVKGRFTISRDNAKNTVYLQMNSLKPEDTAVYYCAAQGYGDNRNKYYYWGQGTQVTISS” here?
The value was “high polyreactivity”.

Which “polyreactivity (PSR sort gate)” value does the source give for “QVQLVESGGGLVQAGGSLRLSCAASGFIFASYTMGWYRQAPGNEREWVAAISRSGGRTYYADSVKGRFTISRDNAKKTVYLQMNSLKPEDTAVYYCATLETTGVNYWGQGTQVTVSS” here?
Its value is “high polyreactivity”.

For “QVQLVESGGGLVQAGGSLRLSCAASGFIFATYTMGWYRQAPGKERELVAAITWRGGSTYYADSVKGRFTISRDNAKNTVYLQMNSLKPEDTAVYYCAAPDVYSYRYVEDDYWGQGTQVTVSS”, which “polyreactivity (PSR sort gate)” value is on record?
The value was “low polyreactivity”.

For “QVQLVESGGGLVQAGGSLRLSCAASGFIFATYTMGWYRQAPGKERKLVAAITWRGGSTYYADSVKGRFTISRDNAKNSVYLQMNSLKPEDTAVYYCAAQDVYSYRYVEDDYWGQGTQVTVSS”, which “polyreactivity (PSR sort gate)” value is on record?
Its value is “low polyreactivity”.

For “QVQLVESGGGLVQAGGSLRLSCAASGFIFAWYAMGWYRQAPGKERELVADITSGGDTSYADSVKGRFTISRDNAKNTVYLQMNSLKPEDTAVYYCARDVYIWYGYGYFPEYEYWGQGTQVTVSS”, which “polyreactivity (PSR sort gate)” value is on record?
Its value is “low polyreactivity”.

Which “polyreactivity (PSR sort gate)” value does the source give for “QVQLVESGGGLVQAGGSLRLSCAASGFIFAYYAMGLYRQAPGKERELVAAITSDGSTYYADSVKGRFTISRDNAKNTVYLQMNSLKPEDTAVYYCNTYWVLRPGYNYWGQGTQVTVSS” here?
The value was “high polyreactivity”.

Which “polyreactivity (PSR sort gate)” value does the source give for “QVQLVESGGGLVQAGGSLRLSCAASGFIFAYYAQGWYRQAPGKERELVAAITSRGGSTYYADSVKGRFTSSRDNAKNTVYVQMNSLKPEDTAVYYCAGRGYQRQYYYWGQGTQVTVSS” here?
Its value is “high polyreactivity”.

For “QVQLVESGGGLVQAGGSLRLSCAASGFIFCPNDMGWYRQAPGKERELVADISGTGGGTYADSVKGRFTISRDNAKNTVYLQMNSLKPEDTAVYYCAALYGLYVSPYWYTGYYWGQGTQVTVSS”, which “polyreactivity (PSR sort gate)” value is on record?
The value was “low polyreactivity”.

For “QVQLVESGGGLVQAGGSLRLSCAASGFIFDAYALGWYRQAPGKERELVAAITRGNTYYADSVKGRFTISRDNAKNTVYLQMNSLKPEDTAVYYCAARYWQSYRSQVTHSSTLDYWGQGTQVTVSS”, which “polyreactivity (PSR sort gate)” value is on record?
The value was “low polyreactivity”.

Which “polyreactivity (PSR sort gate)” value does the source give for “QVQLVESGGGLVQAGGSLRLSCAASGFIFDEYAMGWYRQAPGKERELVAAISWSGSRTYYADSVKGRFTISRDNAKNTVYLQMNSLKPQDTAVDYCAKVTAVGAGRRNYWGQGTQVTVSS” here?
The value was “low polyreactivity”.

Which “polyreactivity (PSR sort gate)” value does the source give for “QVQLVESGGGLVQAGGSLRLSCAASGFIFDEYTMGWYRQAPGKERELVAAITSSGGTDYADSVKGRFTISRDNAKNTVYLQMNSLKPEDTAVYYCNTEDYYRDYDYWGQGTQVTVSS” here?
The value was “low polyreactivity”.

With “QVQLVESGGGLVQAGGSLRLSCAASGFIFDFYTMGWYRQAPGKERELVAAITNAGSTYYADSVKGRFTISRDNAMNTFYLHMNSLKPEDTAVYYCAAYYRSRHHGYDSWGQGTQVTVSS” as the sequence, how does the “polyreactivity (PSR sort gate)” value read?
The value was “low polyreactivity”.

With “QVQLVESGGGLVQAGGSLRLSCAASGFIFDGYAMGWYRQAPGKERELVAAISSVGSTYYADSVKGRFTISRDNAKNTVYLQMNSLKPEDTAVYYCARGLEERYDYWGQGTQVTVSS” as the sequence, how does the “polyreactivity (PSR sort gate)” value read?
The value was “low polyreactivity”.

Which “polyreactivity (PSR sort gate)” value does the source give for “QVQLVESGGGLVQAGGSLRLSCAASGFIFDNNAMGWYRQAPGKERELVATITSGGRTNYADSVKVRFTISRDNAKNTVYLQMNSLKPEDTAVYYCAAGYYLGSRRKTRDYWGQGTQVTVSS” here?
The value was “low polyreactivity”.

Which “polyreactivity (PSR sort gate)” value does the source give for “QVQLVESGGGLVQAGGSLRLSCAASGFIFDPNAMGWYRQAPGRERELVAAISSSGGRTYYADSVKGRFTISRDNAKNTVYLQMNSLKPEDTAVYYCATDTSVQGQEYDYWGQGTQVTVSS” here?
The value was “low polyreactivity”.

For “QVQLVESGGGLVQAGGSLRLSCAASGFIFDPYAMGWYRQAPGKERELVAAISRGGSTYYADSVKGRFTISRDNAKNIVYLQMNSLKPEDTAVYYCAAVFKFTREYSTGIRYYYWGQGTQVTVSS”, which “polyreactivity (PSR sort gate)” value is on record?
Its value is “high polyreactivity”.

With “QVQLVESGGGLVQAGGSLRLSCAASGFIFDQNAMGWYRQAPGKERELVAAITRSGGCTYYADSVKGRFTISRDNAKNTVYLQMYSLNPEDTAVYYCAADLSYRGATRGDYYWGPGTQVTVSS” as the sequence, how does the “polyreactivity (PSR sort gate)” value read?
Its value is “low polyreactivity”.

Which “polyreactivity (PSR sort gate)” value does the source give for “QVQLVESGGGLVQAGGSLRLSCAASGFIFDQYAMGWYRQAPGKERELVAAITTGGDTNYADSVKGRFTISRDNAKNTVYLQMISLKPDDSAVYYCAAKKWLTSGAFDRVFIEFDYWGQGTQVTVSS” here?
The value was “low polyreactivity”.

For “QVQLVESGGGLVQAGGSLRLSCAASGFIFDRYAMGWYRQAPGKERELVAAITGSGGSTYYGDSVKGRFTISRDNAKNTVYLQMNSLKPEDTAVYYCNTGGRSGSPGYDYWGQGTQVTVSS”, which “polyreactivity (PSR sort gate)” value is on record?
The value was “high polyreactivity”.

For “QVQLVESGGGLVQAGGSLRLSCAASGFIFDSYAMGWYRQAPGKERELVAAISDGSSTYADSVKGRFTISRDNAKNTVYLQMNSLKPEDTAVYYCAAGVSTWWSTYDYWGQGTQVTVSS”, which “polyreactivity (PSR sort gate)” value is on record?
Its value is “high polyreactivity”.
